Assay results taken from PMC10907715, “Soluble Frizzled-related proteins promote exosome-mediated Wnt re-secretion” (Communications Biology, 2024).

Tests used:
FLAG-mClover-mouse Wnt5a = molecular target: T1, FLAG-mClover-mouse Wnt5a (mouse, UniProt P22725 62-380); experiment: AUC; AUC-FDS (fluorescence detection) of the culture supernatant of fluorescent Wnt-expressing cells co-cultured with sFRP-expressing or parental HEK293 cells; FluoroBrite DMEM with 8% FBS, no detergent; 20 °C, 42,000 rpm; c(s) model of SEDFIT; details: partners not purified
T1 construct: Wnt5a, mouse; secreted into the culture supernatant; Ends of the tags are read from the order of the printed name; also called mClover-Wnt5a; mClover-tagged Wnt5a; source: HEK293 cells stably expressing it (CMV promoter), secreted into the culture supernatant (not purified); not shown: mClover, N-terminal, kept
T1 sequence (looked up): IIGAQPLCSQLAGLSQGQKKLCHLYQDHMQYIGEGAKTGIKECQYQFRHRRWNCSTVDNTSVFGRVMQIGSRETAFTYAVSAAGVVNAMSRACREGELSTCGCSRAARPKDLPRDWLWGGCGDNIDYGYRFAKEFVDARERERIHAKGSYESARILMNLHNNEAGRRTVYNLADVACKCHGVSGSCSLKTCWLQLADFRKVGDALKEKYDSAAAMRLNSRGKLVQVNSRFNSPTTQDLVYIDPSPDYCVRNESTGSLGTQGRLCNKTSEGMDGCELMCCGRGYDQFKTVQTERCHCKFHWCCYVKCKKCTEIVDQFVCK

[1] = molecular target: T2, FLAG-GFP-tagged mouse Wnt3a (mouse, UniProt P27467 19-352); experiment: as above; details: partners not purified
T2 construct: Wnt3a, mouse; secreted into the culture supernatant; Ends of the tags are read from the order of the printed name; also called GFP-Wnt3a; FLAG-GFP-Wnt3a; source: L cells stably expressing it, secreted into the culture supernatant (not purified); not shown: GFP, N-terminal, kept
T2 sequence (P27467 19-352): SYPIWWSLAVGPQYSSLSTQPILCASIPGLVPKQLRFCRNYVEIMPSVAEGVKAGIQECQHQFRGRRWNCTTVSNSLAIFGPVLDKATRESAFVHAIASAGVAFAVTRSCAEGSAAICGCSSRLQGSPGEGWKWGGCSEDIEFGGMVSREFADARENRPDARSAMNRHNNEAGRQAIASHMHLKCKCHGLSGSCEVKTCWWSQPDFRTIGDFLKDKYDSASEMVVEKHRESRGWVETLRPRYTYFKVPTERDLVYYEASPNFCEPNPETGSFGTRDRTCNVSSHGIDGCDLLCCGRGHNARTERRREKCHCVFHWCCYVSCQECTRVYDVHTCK

B1: mouse sFRP2-FLAG (natural protein, UniProt P97299 25-295, looked up)
chain: LFLFGQPDFSYKRSNCKPIPANLQLCHGIEYQNMRLPNLLGHETMKEVLEQAGAWIPLVMKQCHPDTKKFLCSLFAPVCLDDLDETIQPCHSLCVQVKDRCAPVMSAFGFPWPDMLECDRFPQDNDLCIPLASSDHLLPATEEAPKVCEACKTKNEDDNDIMETLCKNDFALKIKVKEITYINRDTKIILETKSKTIYKLNGVSERDLKKSVLWLKDSLQCTCEEMNDINAPYLVMGQKQGGELVITSVKRWQKGQREFKRISRSIRKLQC
notes: sFRP2 (secreted Frizzled-related protein 2), mouse; secreted into the culture supernatant; End of the tag is read from the order of the printed name; also called secreted Frizzled-related protein 2; source: HEK293 cells stably expressing it, secreted into the culture supernatant (not purified)
FLAG-mClover-mouse Wnt5a
  stoichiometry N: 1
[1]
  stoichiometry N: 1
